Experimental data from patent publication US7071384B2, “Methods for commercial production of heterologous laccase in plant tissue and extraction of the laccase from plant seed” (Genencor International, Inc., priority 1997, dated 2006).

Assays:
[1] = Heat stability of rGUS in whole corn kernels; type: physicochemical
[2] = rGUS specific activity after three-step chromatography purification; type: biochemical
Source text: Distribution of rGUS in the Corn Kernel Tissue Corn kernels (100 g) were soaked in deionized water for two days. In two days separation of germ, hull and endosperm was completed and soaked for 2–3 days. The first half was soaked for 2 days, and the other half for 3 days. The hulls, endosperm, and germ were manually separated. Each fraction was air-dried at ambient temperature and ground with a coffee grinder (Salton/Maxim Housewares Inc., Mont. Prospect,Ill.). rGUS activity and the moisture content of each ground sample were determined. rGUS activity was determined using the assay described by Jefferson and Wilson (Jefferson, R. A.; Wilson, K. J. (1991). In The GUS Gene Fusion system. In “Plant Molecular Biology Manual”, Vol. 1, B14, (S. B. Gelven, R. A. Schilperoort and D. P. S. Verma, eds.). Kluwer Academic Publisher, Dordrecht, Belgium. pp.1–33). One unit (U) of rGUS activity was defined as the amount of enzyme that converts one nmole of p-nitrophenyl β-D-glucuronide per minute at pH 7.0 and 37° C. Storage and Heat Stability
Purification Recombinant GUS was purified from ground kernels, full-fat germ and defatted germ using a three-step chromatography. Ground corn kernels (75 g), full-fat germ (7.5 g), and defatted germ (7.5 g) samples were extracted with 50 mM NaPi buffer pH 7.5 (buffer A) at 1:4 or 1:10 solid-to-liquid ratio as described in the previous section. Fifteen ml of DEAE-Toyopearl (Supelco, Bellefonte, Pa.) resin in buffer A were added to the centrifuged and filtered extract to adsorb (capture) rGUS. The slurry was mixed with a magnetic stirrer for 15 min at ambient temperature, filtered through a funnel-supported No. 1 filter paper, and washed with 400 ml of buffer A. The washed DEAE resin was packed into a glass column with an inside diameter of 1.5 cm. The adsorbed rGUS was eluted with 0.3 M NaCl in buffer A. The fractions containing rGUS activity were combined, ammoniumsufate (AS) was added to a final concentration of 1 M, and the solution was filtered through a 0.45 μfilter. […]

[3] = Large-scale custom milling of transgenic corn, rGUS activity retention; type: physicochemical; conditions: 1,000 kg corn milled, less than 1 min at 90° C., bagged at about 50° C., 2 h at 30° C., overnight at 10° C.
Protocol: The heat stability results obtained in the laboratory were validated on a large scale. During the processing of 1,000 kg of transgenic corn in a custom-milling plant located in Grinnell, Iowa, the corn was exposed for a short time (less than 1 min) to 90° C. The milled corn was bagged at approximately 50° C., transported at ambient temperature (30° C.) for two hours to Iowa State University, and then stored overnight at 10° C. before the rGUS activity was determined.

[4] = Storage stability of rGUS in flaked corn kernels; type: physicochemical
Protocol: Dry corn kernels (12% moisture, 500 g per batch) were cracked using a roller mill (Ferrel-Ross, Oklahoma City, Okla.), then flaked to 0.3 mm thickness using Roskamp flaking rolls (Model K, Roskamp Mfg., Inc., Waterloo, Iowa.). Seven 500-gram batches of flaked corn kernels were placed in zip-lock bags and stored at each of four different temperatures for up to 95 days. The storage stability study was performed in triplicate; three 50-g samples per time and per temperature. To determine the activity of GUS, a 20-g sample was taken from each of the three 50-g bags at the specified time and extracted with 200 ml of 20 mM Tris-HCl pH 7.9 containing 500 mM NaCl and 1 mM CaCl2. Extraction was carried out using a paddle mixer at ambient temperature for 30 min.

[5] = rGUS activity after extraction treatments (hexane defatting; SDS/ME buffer); type: physicochemical
Protocol: A portion of the germ sample prepared by the degermination process was defatted by using a Soxhlet apparatus. Forty grams of full-fat germ were extracted with 300 ml of hexane for five hours, and then air-dried at ambient temperature to remove the hexane.
All samples (flaked kernels, full-fat germ and defatted germ) were ground using a coffee grinder before protein extraction. The samples were extracted at 1:4 or 1:10 solid-to-liquid ratio with 50 mM NaPi buffer of pH 7.5. The extraction was carried out for 15 minutes at ambient temperature by using a magnetic stirrer for mixing less than 50-ml and a paddle mixer for greater than 50-ml volumes. After stirring, the suspension was centrifuged at 26,000 g for 25 min at 0° C., and then filtered through a 4-layer of cheesecloth. The extract was assayed for GUS activity (Hood et al., supra) and protein (Jefferson, R. A.; Wilson, K. J. (1991). In The GUS Gene Fusion system. In “Plant Molecular Biology Manual”, Vol. 1, B14, (S. B. Gelven, R. A. Schilperoort and D. P. S. Verma, eds.). Kluwer Academic Publisher, Dordrecht, Belgium. pp.1–33).
To determine whether a complete extraction of rGUS from corn kernels, full-fat germ and defatted germ was achieved, the remaining solids were stained with X-Gluc. […] The Western blot analysis of the spent solids confirmed the presence of unextracted rGUS. […]

B1: rGUS: recombinant β-glucuronidase produced in transgenic corn kernels (protein)
chain: MLRPVETPTREIKKLDGLWAFSLDRENCGIDQRWWESALQESRAIAVPGSFNDQFADADIRNYAGNVWYQREVFIPKGWAGQRIVLRFDAVTHYGKVWVNNQEVMEHQGGYTPFEADVTPYVIAGKSVRITVCVNNELNWQTIPPGMVITDENGKKKQSYFHDFFNYAGIHRSVMLYTTPNTWVDDITVVTHVAQDCNHASVDWQVVANGDVSVELRDADQQVVATGQGTSGTLQVVNPHLWQPGEGYLYELCVTAKSQTECDIYPLRVGIRSVAVKGEQFLINHKPFYFTGFGRHEDADLRGKGFDNVLMVHDHALMDWIGANSYRTSHYPYAEEMLDWADEHGIVVIDETAAVGFNLSLGIGFEAGNKPKELYSEEAVNGETQQAHLQAIKELIARDKNHPSVVMWSIANEPDTRPQGAREYFAPLAEATRKLDPTRPITCVNVMFCDAHTDTISDLFDVLCLNRYYGWYVQSGDLETAEKVLEKELLAWQEKLHQPIIITEYGVDTLAGLHSMYTDMWSEEYQCAWLDMYHRVFDRVSAVVGEQVWNFADFATSQGILRVGGNKKGIFTRDRKPKSAAFLLQKRWTGMNFGEKPQQGGKQ
- rGUS activity after heating ([1]; kernels, 50° C. for up to six days): fully retained
- loss of initial rGUS activity ([1]; kernels, 70° C. for 8 hours): 60%
- rGUS activity after heating ([1]; kernels, 70° C. for one hour): did not significantly affect rGUS activity
- residual rGUS activity ([1]; kernels, 90° C. for one hour): No residual rGUS activity
- residual rGUS activity ([1]; kernels, 125° C. for 10 minutes): No residual rGUS activity
- rGUS activity after heating ([1]; whole kernels, 50° C. for up to eight hours): did not affect rGUS activity
- Specification activity ([2]; purified from defatted germ, solid-to-liquid ratio 1:10): 36,000 U/mg
- Specification activity ([2]; purified from flaked corn, solid-to-liquid ratio 1:4): 36,000 U/mg
- Specification activity ([2]; purified from full-fat germ, solid-to-liquid ratio 1:10): 45,000 U/mg
- rGUS activity loss [3]: no loss of rGUS activity
- loss of rGUS activity ([4]; flaked kernels at 10° C. for up to 3 months): 23%
- loss of initial GUS activity ([4]; flaked kernels at 25° C. after three weeks (sample spoilage)): 13%
- loss of initial rGUS activity ([4]; flaked kernels at 37° C. for one week): 23%
- rGUS activity loss ([4]; flaked kernels at −29, 10, or 25° C. for up to 2 weeks): no significant loss of rGUS activity
- loss of rGUS activity ([4]; flaked kernels at −29° C. for up to 3 months): 14%
- rGUS activity after extraction with detergent ([5]; 1% (v/v) SDS and 2% (v/v) ME in extraction buffer): inactive
- rGUS activity after corn oil extraction ([5]; germ defatted with hexane (˜60° C.)): did not affect the activity of rGUS
